Measured values from the supplement of paper PMC9942255.

Tested on: Bacillus subtilis DB104 (SP-AmyQ fusion secretion)
Experiment: AmyQ secretion efficiency, weighted average sort bin (1 = best secretion, 10 = worst) (bin number (weighted average, 1-10)); higher = lower secretion efficiency
In short: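 With fluorescein-starch as substrate, a B. subtilis DB104 library expressing mature AmyQ fused to designed signal peptides (integrated at amyE) was encapsulated at about 0.3 cells per ~65 nL alginate bead. After about 13 h at room temperature, beads were nile red stained, and occupied beads were sorted by large-particle flow cytometry into 10 equally populated bins by green/red fluorescence ratio. Illumina sequencing of the amplicons in each bin was used to calculate the secretion score, which is the read-frequency-weighted average bin number, normalised to beads per bin, with low-abundance sequences left out.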

Row | Sequence | AmyQ secretion efficiency
1 | MLKKKWMVGLLAGCLAAGGFSYNGFATEN | 6.08
2 | MLKKKWMVGLLAGCLAAGGFSYNGSFVAFATEN | 3.96
3 | MLKKKWMVGLLAGCLAAGGFSYNHFATEN | 6.62
4 | MLKKKWMVGLLAGCLAAGGFSYNKFATEN | 7.42
5 | MLKKKWMVGLLAGCLAAGGFSYNLFATEN | 5.92
6 | MLKKKWMVGLLAGCLAAGGFSYNMFATEN | 6.41
7 | MLKKKWMVGLLAGCLAAGGFSYNNFATEN | 6.75
8 | MLKKKWMVGLLAGCLAAGGFSYNQFATEN | 6.91
9 | MLKKKWMVGLLAGCLAAGGFSYNRFATEN | 6.33
10 | MLKKKWMVGLLAGCLAAGGFSYNSFATEN | 5.59
11 | MLKKKWMVGLLAGCLAAGGFSYNSPPFFFGAAFATEN | 5.86
12 | MLKKKWMVGLLAGCLAAGGFSYNTFATEN | 5.24
13 | MLKKKWMVGLLAGCLAAGGFSYNVFATEN | 5.37
14 | MLKKKWMVGLLAGCLAAGGFSYNWFATEN | 6.53
15 | MLKKKWMVGLLAGCLAAGKKKYNAFATEN | 7.66
16 | MLKKKWMVGLLAGCLAAGRKKKKKAFATEN | 7.31
17 | MLKKKWMVGLLAGCLAAGSAGFSYNAFATEN | 4.95
18 | MLKKKWMVGLLAGCLAAGTTSAAFTFFTGFSYNAFATEN | 7.04
19 | MLKKKWMVGLLAGCLAAGVALALSGFSYNAFATEN | 5.02
20 | MLKKKWMVGLLAGCLAGFSYNAFATEN | 5.96
21 | MLKKKWMVKKKRRCKAAGGFSYNAFATEN | 7.54
22 | MLKKKWMVKRLAGCLAAGGFSYNAFATEN | 7.03
23 | MLKKKWMVRRRKGCLAAGGFSYNAFATEN | 7.58
24 | MLKKKWVGLLAGCLAAGGFSYNAFATEN | 4.85
25 | MLKKTILAAFILVGSTLGAFSFSSDASAKHV | 2.16
26 | MLKKVILAAFILVGSTLGAFSFSSDASAARK | 2.12

Row | Sequence | AmyQ secretion efficiency
27 | MLKKVILAAFILVGSTLGEDSFSSDASAKHV | 4.32
28 | MLKKVILAAFILVGSTLGRKSFSSKASAKHV | 6.14
29 | MLKKVILAAFILVGSTLGRRKRKSRASAKHV | 5.28
30 | MLKKVKRAAFILVGSTLGAFSFSSDASAKHV | 1.33
31 | MLKKVKRRRFILVGSTLGAFSFSSDASAKHV | 7.34
32 | MLKKVRKRRKKLVGSTLGAFSFSSDASAKHV | 6.7
33 | MLKNRILALFVLSLGLLSFMVTPVSAASK | 1.67
34 | MLKRLIAPMLLSAASLAFFAMSGSAQAAAY | 3.75
35 | MLKRTSFVSLFISSAVLLSILLPSGQAHAQSA | 1.67
36 | MLKRTSFVSSGKYTTAVLLSILLPSGQAHAQSA | 2.65
37 | MLKRTSFVSSLFIFMAVLLIILTLPSGQAHAQSA | 1.9
38 | MLKRTSFVSSLFISSAVLLLPSGQAHAQSA | 1.64
39 | MLKRTSFVSSLFISSAVLLSILEDDDDDAHAQSA | 5.08
40 | MLKRTSFVSSLFISSAVLLSILKKKGQAHAQSA | 7
41 | MLKRTSFVSSLFISSAVLLSILLGSGQAHAQSA | 2.06
42 | MLKRTSFVSSLFISSAVLLSILLIASTAHAQSA | 3.17
43 | MLKRTSFVSSLFISSAVLLSILLPSGQAHADDD | 4.33
44 | MLKRTSFVSSLFISSAVLLSILLPSGQAHAQKR | 2.41
45 | MLKRTSFVSSLFISSAVLLSILLPSGQAHARKR | 3.12
46 | MLKRTSFVSSLFISSAVLLSILLPSGQGHAQSA | 1.31
47 | MLKRTSFVSSLFISSAVLLSILLPSGQIHAQSA | 2.68
48 | MLKRTSFVSSLFISSAVLLSILLPSGQLHAQSA | 1.71
49 | MLKRTSFVSSLFISSAVLLSILLPSGQTHAQSA | 1.61
50 | MLKRTSFVSSLFISSAVLLSILLPSGQVHAQSA | 1.69
51 | MLKRTSFVSSLFISSAVLLSILRRKRRRAHAQSA | 7.6
52 | MLKRTSFVSSLFISSAVLLSILTPDGQAHAQSA | 1.39

Row | Sequence | AmyQ secretion efficiency
53 | MLKRTSFVSSLKKSSAVLLSILLPSGQAHAQSA | 3.11
54 | MLKRTSFVSSLRRKRKKLLSILLPSGQAHAQSA | 6.99
55 | MLKRTSFVSSQGQGSRTLLSILLPSGQAHAQSA | 7.6
56 | MLKRTSFVSSSFISSAVLLSILLPSGQAHAQSA | 2.16
57 | MLKRTSFVSSSSLFISSAVLLSILLPSGQAHAQSA | 1.71
58 | MLKRTSLFISSAVLLSILLPSGQAHAQSA | 2.05
59 | MLLGKILLSSALSLGMLVSAAPVLATSS | 6.9
60 | MLLKWMSGLLLVAVGFSFTQVMVHAGET | 5.02
61 | MLLNLAAGLTASAIVGTTLVVTPAEAATI | 6.11
62 | MLMKVILAAFILVGSTLGAFSFSSDASAKHV | 2
63 | MLMLCLWFTVFSLFLVLLPGKALGAVD | 5.08
64 | MLMLLSTLLIGIMLLTFAPSAFAKQD | 4.38
65 | MLMLWNSLALCGLALTLAPCAQAAEP | 2.76
66 | MLMSIALTLCPAIVGSLLFFTAPASAHVS | 4.17
67 | MLNGIISFLLVSFVLFFALSTGITGVQAAPA | 3.09
68 | MLRITINIITMFIAAAVISLTGTAEAAEK | 3.59
69 | MLSIWIGMLAAAVLLLMVPKVSLADAA | 6.86
70 | MLSMNLWISLLFALTLIFTMAFSNMSAQAAGK | 1.93
71 | MLSSKWMVGLLAGCLAAGGFSYNAFATEN | 3.83
72 | MLTFLIGAGVAAVILSGWFIADHQTHSQEM | 6.55
73 | MLTFLWMVGLLAGCLAAGGFSYNAFATEN | 7.84
74 | MLTINLLTIYIMLLGLIAWFPGAAQAEEK | 4.46
75 | MLTKRGRYYYRTLLGLIAWFPGAAQAEEK | 9.36
76 | MLTKRLLLTIYIMLLGLIAWFPGAAQAEEK | 2.22
77 | MLTKRLLTIYIMLLGLIAWFPGAAQAAED | 2.99
78 | MLTKRLLTIYIMLLGLIAWFPGAAQAAKK | 4.2

Row | Sequence | AmyQ secretion efficiency
79 | MLTKRLLTIYIMLLGLIAWFPGAAQAASK | 1.8
80 | MLTKRLLTIYIMLLGLIAWFPGAAQAATP | 2.42
81 | MLTKRLLTIYIMLLGLIAWFPGAAQAEDE | 3.66
82 | MLTKRLLTIYIMLLGLIAWFPGAAQAKRK | 6.07
83 | MLTKRLLTIYIMLLGLIAWFPGAAQCEEK | 2.82
84 | MLTKRLLTIYIMLLGLIAWFPGAAQGEEK | 2.56
85 | MLTKRLLTIYIMLLGLIAWFPGAIQAEEK | 2.08
86 | MLTKRLLTIYIMLLGLIAWFPGALQAEEK | 2.66
87 | MLTKRLLTIYIMLLGLIAWFPGASQAEEK | 4.32
88 | MLTKRLLTIYIMLLGLIAWFPGATVPAQAEEK | 2.86
89 | MLTKRLLTIYIMLLGLIDDDPGAAQAEEK | 9.93
90 | MLTKRLLTIYIMLLGLIFLVALAWFPGAAQAEEK | 4.8
91 | MLTKRLLTIYIMLLGLIFVILSALSAAWFPGAAQAEEK | 4.31
92 | MLTKRLLTIYIMLLGLIKKKRKKAQAEEK | 7.57
93 | MLTKRLLTIYIMLLGLILAWFPGAAQAEEK | 2.09
94 | MLTKRLLTIYIMLLGLIRRKPGAAQAEEK | 7.69
95 | MLTKRLLTIYIMLLGLITWFPGAAQAEEK | 2.44
96 | MLTKRLLTIYIMLLMLIAWFPGAAQAEEK | 1.61
97 | MLTKRLRKKKRRLLGLIAWFPGAAQAEEK | 7.67
98 | MLTKRQLTIYIMLLGLIAWFPGAAQAEEK | 2.9
99 | MLTKRTTTSLLTIYIMLLGLIAWFPGAAQAEEK | 3.1
100 | MLTLRTLCVLMILSGVIFFGLKIDAKDI | 6.18
101 | MLYLKRVLLLLVTGLFMSLFAVTATASAQTG | 1.49
102 | MMFMFLLCVMMLLFSAIASFPVSAQAKDQ | 6.02
103 | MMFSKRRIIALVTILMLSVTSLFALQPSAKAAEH | 1.68
104 | MMGIMIFLTSFMLLAMTGQTALAKDV | 3.75

Row | Sequence | AmyQ secretion efficiency
105 | MMGKGLLAGALTATVLFGTCAVDVPGIISPKTAEAASQ | 1.48
106 | MMGRKVLTGSVLSLGLLVSASPAFATSP | 2.07
107 | MMGVLLSALLLLLFAFEPSASGKKL | 6.16
108 | MMIGQCVICLSLLVFGTTAAHAEET | 4.07
109 | MMIKQCKKCLSLLVFGTTAAHAEET | 7.22
110 | MMIKQCKRCKKRKVFGTTAAHAEET | 7.72
111 | MMIKQCRKCKRLLVFGTTAAHAEET | 6.79
112 | MMIKQCTICLSLLVFGTTAAHAEET | 2.71
113 | MMIKQCVICLSLLVFGTEDEEEEAHAEET | 6.81
114 | MMIKQCVICLSLLVFGTEEDAHAEET | 3.44
115 | MMIKQCVICLSLLVFGTIAIAHAEET | 4.16
116 | MMIKQCVICLSLLVFGTRRKAHAEET | 7.59
117 | MMIKQCVICLSLLVFGTTAAHAARR | 5.39
118 | MMIKQCVICLSLLVFGTTAAHARKR | 6.42
119 | MMIKQCVICLSLLVFGTTAAHSEET | 4.24
120 | MMIKQCVICLSLLVFGTTASGTAHAEET | 2.45
121 | MMIKQCVICLSLLVFGTTAVHAEET | 1.9
122 | MMIKQCVICLSLLVFGTTKAHAEET | 2.63
123 | MMIKQCVICLSLLVFGTTTAHAEET | 2.61
124 | MMIKQCYGCKSLLVFGTTAAHAEET | 7.62
125 | MMIKQNMSSCVICLSLLVFGTTAAHAEET | 2.9
126 | MMIKQNMSSNSSCVICLSLLVFGTTAAHAEET | 4.39
127 | MMIMQCVICLSLLVFGTTAAHAEET | 2.38
